Test results taken from publication PMC4494967.

Key:
[1] = target: USP7 (UniProt Q93009); experiment: anti-myc IP, western blot; details: reference: myc-CCDC6 wild type; sites S359,S413,T427
[2] = target: FBXW7 (UniProt Q969H0); experiment: anti-myc IP, anti-HA blot; details: reference: myc-CCDC6 wild type; sites S359,S413,T427

CCDC6 (from UniProt Q16204) triple mutant S359A/S413A/T427A (TM)
binding against the reference [1]: stronger
binding against the reference [2]: weaker
